Test results published in publication PMC6914340.

Columns and labels:
Assay in all cases: flow cytometry on cells; on-yeast binding titration: single yeast colonies each displaying an IL-6 variant; biotinylated gp130 from 1 μM, eight concentrations in a 1/3 dilution series; apparent KD
[1] = molecular target: IL-6 variant Mut1 displayed on yeast (human) (UniProt P05231)
[2] = molecular target: IL-6 variant Mut3 displayed on yeast (human) (UniProt P05231)
[3] = molecular target: IL-6 variant Mut7 displayed on yeast (human) (UniProt P05231)
Sequence of IL-6 variant Mut7 displayed on yeast (human) (P05231 30-212, change not shown): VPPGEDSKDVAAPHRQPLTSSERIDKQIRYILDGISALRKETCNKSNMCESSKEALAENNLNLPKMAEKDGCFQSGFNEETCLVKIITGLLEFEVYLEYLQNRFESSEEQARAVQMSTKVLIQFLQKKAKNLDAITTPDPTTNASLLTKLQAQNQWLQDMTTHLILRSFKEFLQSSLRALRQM

Sequence of biotinylated gp130 ectodomain (SD1-SD3, amino acids 23–321) (P40189 23-321): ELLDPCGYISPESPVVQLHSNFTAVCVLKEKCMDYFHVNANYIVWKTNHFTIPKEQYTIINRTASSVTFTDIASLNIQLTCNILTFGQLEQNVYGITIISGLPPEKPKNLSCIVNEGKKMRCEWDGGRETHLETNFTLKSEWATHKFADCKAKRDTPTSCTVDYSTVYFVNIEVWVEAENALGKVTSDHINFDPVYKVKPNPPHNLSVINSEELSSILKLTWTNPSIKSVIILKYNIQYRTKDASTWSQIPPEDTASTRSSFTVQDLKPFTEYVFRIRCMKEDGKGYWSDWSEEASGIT
Sequence of IL-6 variant Mut1 displayed on yeast (human) (P05231 30-212, change not shown): as the sequence (P05231 30-212, change not shown) above
Sequence of IL-6 variant Mut3 displayed on yeast (human) (P05231 30-212, change not shown): as above

- Kd [1]: 2 nM
- Kd [2]: 2 nM
- Kd [3]: 2 nM
Substance: biotinylated gp130 ectodomain (SD1-SD3, amino acids 23–321) (from UniProt P40189 23-321) (domain or fragment)
